Laboratory results published in paper PMC13152641.

Experiments:
CICmin31 M1519D = CICmin31 M1519D (human, UniProt Q96RK0-2 188-294+1457-1527, M1519D;internal_change); experiment: MST
CICmin31 R1515H = CICmin31 R1515H (human, UniProt Q96RK0-2 188-294+1457-1527, R1515H;internal_change); experiment: MST
CICmin31 R215W = CICmin31 R215W (human, UniProt Q96RK0-2 188-294+1457-1527, R215W;internal_change); experiment: MST
CICmin31 R201W = CICmin31 R201W (human, UniProt Q96RK0-2;Q96RK0-2, R201W); experiment: MST
CICmin31 WT = CICmin31 WT (human, UniProt Q96RK0-2 188-294+1457-1527, internal_change); experiment: MST
CICmin18 M1519D = CICmin18 M1519D (human, UniProt Q96RK0-2 188-280+=F+1457-1527, M1519D;internal_change); experiment: MST
CICmin18 R1512H = CICmin18 R1512H (human, UniProt Q96RK0-2 188-280+=F+1457-1527, R1512H;internal_change); experiment: MST
CICmin18 R1515H = CICmin18 R1515H (human, UniProt Q96RK0-2 188-280+=F+1457-1527, R1515H;internal_change); experiment: MST
CICmin18 WT [1] = target: T1, CICmin18 WT (human, UniProt Q96RK0-2;Q96RK0-2); experiment: MST
CICmin18 WT [2] = target: T1, CICmin18 WT; experiment: X-ray crystallography 2.95 A
CICmin18 WT [3] = target: T1, CICmin18 WT; experiment: EMSA
CICmin31 WT (IVT) = CICmin31 WT (IVT) (human, UniProt Q96RK0-2 188-294+1457-1527, internal_change); experiment: EMSA
CICmin31 R201W (IVT) = CICmin31 R201W (IVT) (human, UniProt Q96RK0-2 188-294+1457-1527, R201W;internal_change); experiment: EMSA

B1: ETV5 30-mer (MST) (dsDNA)
DNA 1: GGCGTTTTTTATGAATGAAAAACGTCCTCC
DNA 2: GGAGGACGTTTTTCATTCATAAAAAACGCC
- apparent K (half saturation) (CICmin31 M1519D): 32.2 nM
- apparent K (half saturation) (CICmin31 R1515H): 1430 nM
- apparent K (half saturation) (CICmin31 R215W): 151 nM
- apparent K (half saturation) (CICmin31 R201W): 171 nM
- apparent K (half saturation) (CICmin31 WT): 226 nM
- apparent K (half saturation) (CICmin18 M1519D): 50.3 nM
- apparent K (half saturation) (CICmin18 R1512H): 14.6 nM
- apparent K (half saturation) (CICmin18 R1515H): 16.7 nM
- apparent K (half saturation) (CICmin18 WT [1]): 15.5 nM

B2: ETV5 18-mer (crystal) (dsDNA)
DNA 1: GGTTATGAATGAAAAACC
DNA 2: GGTTTTTCATTCATAACC
- binding result (CICmin18 WT [2]): binds

B3: random-site 30-mer (EMSA) (dsDNA)
DNA 1: GGCGTTTTTTAGTCGCTGCAAACGTCCTCC
DNA 2: GGAGGACGTTTGCAGCGACTAAAAAACGCC
- binding result (CICmin18 WT [3]): no binding
- binding result (CICmin31 WT (IVT)): no binding

B4: ETV5 30-mer (EMSA) (dsDNA)
DNA 1: B1 DNA 1
DNA 2: B1 DNA 2
- binding result (CICmin31 R201W (IVT)): binds
